This passage reports Kd and binding signal results from paper PMC12059597.

In data set [1] the test system is CD44 (predominantly standard isoform CD44s) on human TNBC cells (Homo sapiens (Cis-Pt-R, MDA-MB-231, BT-549 cells)), P16070-12. The experiment in a line: flow cytometry cell binding. The following applies: apparent Kd on whole Cis-Pt-R cells; 2'-fluoro pyrimidines (2'F-Py) in the entire sequence; Flow cytometry: 150 nM Alexa 647-sTN58, serum-free medium, 0.1 mg/mL yeast tRNA, 0.1 mg/mL salmon sperm DNA, 10 min RT, after 30-fold excess unlabeled SCR …; cited from earlier work. A general note: A flow cytometer gives signals particle by particle.

Data set [2] shares this test system. The experiment in a line: flow cytometry cell binding with siRNA knockdown. The note with it: 150 nM aptamer, 2'-fluoro pyrimidines (2'F-Py) in the entire sequence, Flow cytometry: 150 nM Alexa 647-sTN58, serum-free medium, 0.1 mg/mL yeast tRNA, 0.1 mg/mL salmon sperm DNA, 10 min RT, after 30-fold excess unlabeled SCR …, scale: % reduction of binding on CD44 knockdown vs siRNA ctrl.

Chain of CD44 (predominantly standard isoform CD44s) on human TNBC cells (Homo sapiens (Cis-Pt-R, MDA-MB-231, BT-549 cells)), P16070-12 (P16070 other isoform, or with tags, fused parts or gaps): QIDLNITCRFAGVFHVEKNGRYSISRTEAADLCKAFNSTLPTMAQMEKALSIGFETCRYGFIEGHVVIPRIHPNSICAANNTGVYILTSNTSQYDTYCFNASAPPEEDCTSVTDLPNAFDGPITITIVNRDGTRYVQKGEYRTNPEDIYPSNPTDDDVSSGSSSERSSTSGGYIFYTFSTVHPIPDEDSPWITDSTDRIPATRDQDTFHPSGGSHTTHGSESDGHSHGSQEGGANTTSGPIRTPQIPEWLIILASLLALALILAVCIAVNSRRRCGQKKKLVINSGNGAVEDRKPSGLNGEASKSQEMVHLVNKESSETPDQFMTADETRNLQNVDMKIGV

Take “GGACAUAUGAUGCAACGUUGUGGUCCCGUUUGCACUUUGUUUACG [sTN58]”: the Kd in data set [1] was 10 nM. This sequence registered a binding signal in data set [2] of 55.
